Data: patent US20050176083

What was measured:
[1] = target: Q506 mutant human factor Va (FVa Leiden), P12259
[2] = target: human factor Va (normal, from human plasma), P12259
[3] = target: bovine factor Va (in bovine plasma), Q28107
[4] = target: T1, human factor VIIIa, P00451
T1 chain: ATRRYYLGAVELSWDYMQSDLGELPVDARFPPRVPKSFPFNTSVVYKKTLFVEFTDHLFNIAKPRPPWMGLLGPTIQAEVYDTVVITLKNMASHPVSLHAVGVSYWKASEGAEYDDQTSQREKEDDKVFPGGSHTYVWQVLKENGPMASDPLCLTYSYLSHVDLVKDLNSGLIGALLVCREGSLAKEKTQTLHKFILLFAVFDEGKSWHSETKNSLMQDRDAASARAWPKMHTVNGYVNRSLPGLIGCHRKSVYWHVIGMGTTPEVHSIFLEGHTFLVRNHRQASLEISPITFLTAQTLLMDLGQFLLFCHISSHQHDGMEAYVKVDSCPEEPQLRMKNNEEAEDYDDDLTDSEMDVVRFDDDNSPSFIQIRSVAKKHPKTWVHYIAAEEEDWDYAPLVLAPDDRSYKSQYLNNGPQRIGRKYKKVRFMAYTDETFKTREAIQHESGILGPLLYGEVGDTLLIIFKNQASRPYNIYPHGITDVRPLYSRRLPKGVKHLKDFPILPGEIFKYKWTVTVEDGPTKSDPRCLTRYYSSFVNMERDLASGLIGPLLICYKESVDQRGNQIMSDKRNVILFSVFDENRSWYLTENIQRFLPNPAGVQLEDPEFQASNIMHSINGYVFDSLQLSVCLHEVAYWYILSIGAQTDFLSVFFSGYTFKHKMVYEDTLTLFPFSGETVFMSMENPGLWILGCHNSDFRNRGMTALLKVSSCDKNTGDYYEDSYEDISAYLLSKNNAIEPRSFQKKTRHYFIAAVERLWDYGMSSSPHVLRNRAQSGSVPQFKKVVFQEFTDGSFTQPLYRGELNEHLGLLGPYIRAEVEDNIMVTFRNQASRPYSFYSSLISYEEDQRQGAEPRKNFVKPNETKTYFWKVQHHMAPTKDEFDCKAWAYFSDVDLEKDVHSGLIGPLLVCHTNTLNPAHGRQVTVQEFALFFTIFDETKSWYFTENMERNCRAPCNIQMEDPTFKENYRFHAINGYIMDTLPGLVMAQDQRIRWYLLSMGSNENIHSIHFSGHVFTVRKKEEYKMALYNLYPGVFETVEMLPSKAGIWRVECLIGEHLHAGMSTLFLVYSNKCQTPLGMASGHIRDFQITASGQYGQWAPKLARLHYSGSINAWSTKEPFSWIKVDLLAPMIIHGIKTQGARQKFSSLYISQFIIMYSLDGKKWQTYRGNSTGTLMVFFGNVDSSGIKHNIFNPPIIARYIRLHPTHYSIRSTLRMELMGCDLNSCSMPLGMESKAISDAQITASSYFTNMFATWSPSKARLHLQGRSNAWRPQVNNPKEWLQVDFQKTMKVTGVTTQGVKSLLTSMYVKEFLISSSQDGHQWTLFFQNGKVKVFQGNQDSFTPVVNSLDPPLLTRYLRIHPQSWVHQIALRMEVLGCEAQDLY

Sequence of human factor Va (normal, from human plasma), P12259 (P12259 29-2224): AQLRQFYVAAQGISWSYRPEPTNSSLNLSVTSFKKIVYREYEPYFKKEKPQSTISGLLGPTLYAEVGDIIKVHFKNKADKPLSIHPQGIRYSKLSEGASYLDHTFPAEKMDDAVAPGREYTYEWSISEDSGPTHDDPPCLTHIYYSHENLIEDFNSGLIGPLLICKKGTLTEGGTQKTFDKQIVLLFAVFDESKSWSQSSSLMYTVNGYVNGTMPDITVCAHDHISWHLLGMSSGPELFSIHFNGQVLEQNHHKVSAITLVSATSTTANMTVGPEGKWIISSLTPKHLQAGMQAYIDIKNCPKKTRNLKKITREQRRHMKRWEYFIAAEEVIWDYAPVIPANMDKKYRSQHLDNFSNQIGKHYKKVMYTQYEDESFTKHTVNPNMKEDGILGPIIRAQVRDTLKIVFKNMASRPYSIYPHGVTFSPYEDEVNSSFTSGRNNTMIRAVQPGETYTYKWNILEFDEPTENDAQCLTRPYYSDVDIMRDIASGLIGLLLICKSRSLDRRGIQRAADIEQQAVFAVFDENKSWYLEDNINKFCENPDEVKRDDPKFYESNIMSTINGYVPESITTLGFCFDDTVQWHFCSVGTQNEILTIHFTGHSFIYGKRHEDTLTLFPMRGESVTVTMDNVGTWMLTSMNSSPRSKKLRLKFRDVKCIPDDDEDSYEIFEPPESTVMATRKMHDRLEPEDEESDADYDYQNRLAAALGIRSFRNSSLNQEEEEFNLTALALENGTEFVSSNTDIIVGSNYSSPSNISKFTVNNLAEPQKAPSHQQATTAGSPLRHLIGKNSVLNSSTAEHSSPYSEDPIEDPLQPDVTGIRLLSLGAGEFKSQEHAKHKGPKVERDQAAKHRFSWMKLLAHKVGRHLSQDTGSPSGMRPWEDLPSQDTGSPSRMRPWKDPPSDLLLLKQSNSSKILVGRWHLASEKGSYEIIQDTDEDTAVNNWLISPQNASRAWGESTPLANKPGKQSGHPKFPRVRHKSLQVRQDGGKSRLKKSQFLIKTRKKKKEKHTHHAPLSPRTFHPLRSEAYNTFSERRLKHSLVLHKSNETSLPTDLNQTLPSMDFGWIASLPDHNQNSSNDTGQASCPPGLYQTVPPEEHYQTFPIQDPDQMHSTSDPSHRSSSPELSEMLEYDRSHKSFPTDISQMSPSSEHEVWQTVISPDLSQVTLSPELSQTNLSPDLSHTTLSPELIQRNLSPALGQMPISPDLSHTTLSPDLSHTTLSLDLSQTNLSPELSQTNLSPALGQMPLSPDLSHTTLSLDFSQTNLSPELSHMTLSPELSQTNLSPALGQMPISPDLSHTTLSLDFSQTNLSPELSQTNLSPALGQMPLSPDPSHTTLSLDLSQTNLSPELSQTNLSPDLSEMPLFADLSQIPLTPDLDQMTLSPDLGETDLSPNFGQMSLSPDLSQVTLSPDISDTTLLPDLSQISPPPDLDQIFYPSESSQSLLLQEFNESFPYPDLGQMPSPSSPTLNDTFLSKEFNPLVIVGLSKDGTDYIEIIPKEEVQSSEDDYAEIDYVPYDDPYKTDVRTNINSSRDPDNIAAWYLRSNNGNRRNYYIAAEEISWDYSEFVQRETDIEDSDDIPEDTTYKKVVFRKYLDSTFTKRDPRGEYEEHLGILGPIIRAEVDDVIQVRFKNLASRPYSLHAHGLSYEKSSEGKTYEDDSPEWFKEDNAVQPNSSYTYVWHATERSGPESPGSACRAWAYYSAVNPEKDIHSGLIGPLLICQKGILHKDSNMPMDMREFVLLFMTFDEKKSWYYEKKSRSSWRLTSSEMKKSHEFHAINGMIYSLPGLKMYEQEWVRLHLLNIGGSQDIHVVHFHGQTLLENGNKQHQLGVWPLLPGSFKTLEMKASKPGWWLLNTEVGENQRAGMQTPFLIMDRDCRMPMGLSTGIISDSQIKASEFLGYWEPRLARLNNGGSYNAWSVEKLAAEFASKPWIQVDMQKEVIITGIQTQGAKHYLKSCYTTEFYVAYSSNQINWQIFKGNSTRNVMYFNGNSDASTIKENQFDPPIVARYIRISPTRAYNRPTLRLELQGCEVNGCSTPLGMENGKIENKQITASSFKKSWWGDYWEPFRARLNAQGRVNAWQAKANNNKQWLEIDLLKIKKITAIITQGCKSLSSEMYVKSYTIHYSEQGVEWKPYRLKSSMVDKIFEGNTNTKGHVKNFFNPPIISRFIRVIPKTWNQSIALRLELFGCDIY
Sequence of bovine factor Va (in bovine plasma), Q28107 (Q28107 29-2211): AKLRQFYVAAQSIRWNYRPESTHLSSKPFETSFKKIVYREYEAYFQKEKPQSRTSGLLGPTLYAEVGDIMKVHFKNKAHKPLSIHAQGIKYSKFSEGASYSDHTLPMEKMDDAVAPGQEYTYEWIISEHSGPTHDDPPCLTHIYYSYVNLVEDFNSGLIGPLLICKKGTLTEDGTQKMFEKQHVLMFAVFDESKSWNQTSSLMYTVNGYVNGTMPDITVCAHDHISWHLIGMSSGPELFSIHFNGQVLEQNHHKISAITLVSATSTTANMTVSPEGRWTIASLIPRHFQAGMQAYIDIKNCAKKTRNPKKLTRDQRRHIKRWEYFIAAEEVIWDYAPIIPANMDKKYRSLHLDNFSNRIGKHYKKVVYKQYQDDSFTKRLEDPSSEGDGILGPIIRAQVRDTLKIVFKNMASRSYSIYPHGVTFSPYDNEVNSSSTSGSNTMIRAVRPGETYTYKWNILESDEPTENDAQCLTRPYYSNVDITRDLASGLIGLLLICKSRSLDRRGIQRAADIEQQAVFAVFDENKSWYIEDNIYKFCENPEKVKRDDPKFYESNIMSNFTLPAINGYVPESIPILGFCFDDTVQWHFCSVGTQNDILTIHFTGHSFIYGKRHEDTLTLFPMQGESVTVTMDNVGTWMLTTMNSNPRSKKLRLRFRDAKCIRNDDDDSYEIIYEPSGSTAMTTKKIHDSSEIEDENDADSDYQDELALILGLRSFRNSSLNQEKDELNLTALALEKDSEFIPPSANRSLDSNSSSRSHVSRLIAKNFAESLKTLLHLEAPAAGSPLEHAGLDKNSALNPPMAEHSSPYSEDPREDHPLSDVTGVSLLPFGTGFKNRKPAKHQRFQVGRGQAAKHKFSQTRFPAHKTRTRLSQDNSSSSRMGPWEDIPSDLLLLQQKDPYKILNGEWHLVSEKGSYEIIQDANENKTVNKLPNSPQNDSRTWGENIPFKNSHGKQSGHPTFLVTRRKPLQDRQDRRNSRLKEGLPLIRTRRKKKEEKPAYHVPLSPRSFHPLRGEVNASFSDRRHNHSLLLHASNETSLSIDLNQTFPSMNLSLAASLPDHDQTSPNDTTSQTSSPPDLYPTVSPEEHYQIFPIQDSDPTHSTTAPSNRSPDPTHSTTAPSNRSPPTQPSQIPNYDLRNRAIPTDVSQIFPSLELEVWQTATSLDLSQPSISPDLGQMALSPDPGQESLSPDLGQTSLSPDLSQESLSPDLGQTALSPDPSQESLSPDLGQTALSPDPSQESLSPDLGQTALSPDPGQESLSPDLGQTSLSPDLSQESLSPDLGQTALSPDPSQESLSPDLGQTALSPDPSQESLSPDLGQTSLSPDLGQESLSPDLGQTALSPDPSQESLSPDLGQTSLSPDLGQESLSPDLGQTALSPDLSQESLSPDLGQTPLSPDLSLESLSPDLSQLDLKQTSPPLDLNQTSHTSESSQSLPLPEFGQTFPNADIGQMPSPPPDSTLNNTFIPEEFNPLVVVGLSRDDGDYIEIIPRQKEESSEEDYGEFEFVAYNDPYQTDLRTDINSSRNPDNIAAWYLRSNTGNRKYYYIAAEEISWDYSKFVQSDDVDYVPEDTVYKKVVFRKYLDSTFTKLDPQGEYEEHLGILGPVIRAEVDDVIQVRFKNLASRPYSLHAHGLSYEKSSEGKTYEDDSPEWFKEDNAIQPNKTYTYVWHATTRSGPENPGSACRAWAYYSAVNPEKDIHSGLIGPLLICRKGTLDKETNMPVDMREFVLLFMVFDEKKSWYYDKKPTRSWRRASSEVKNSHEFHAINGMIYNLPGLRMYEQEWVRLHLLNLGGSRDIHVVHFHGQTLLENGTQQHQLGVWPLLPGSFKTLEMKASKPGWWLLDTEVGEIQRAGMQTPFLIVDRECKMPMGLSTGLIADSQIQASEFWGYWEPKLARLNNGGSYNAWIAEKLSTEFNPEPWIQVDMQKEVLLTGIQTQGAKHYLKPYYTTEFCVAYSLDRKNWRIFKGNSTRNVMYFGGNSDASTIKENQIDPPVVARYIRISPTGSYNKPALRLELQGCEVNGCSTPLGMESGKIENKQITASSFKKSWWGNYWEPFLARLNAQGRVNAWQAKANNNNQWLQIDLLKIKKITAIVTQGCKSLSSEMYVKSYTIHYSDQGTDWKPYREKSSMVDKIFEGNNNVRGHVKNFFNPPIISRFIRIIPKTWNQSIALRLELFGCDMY
Sequence of Q506 mutant human factor Va (FVa Leiden), P12259 (P12259 other isoform, or with tags, fused parts or gaps mutant): as the sequence (P12259 29-2224) above, with R506Q counted along it

B1: wild-type human activated protein C (recombinant, thrombin-activated) (protein)
chain 1: ANSFLEELRHSSLERECIEEICDFEEAKEIFQNVDDTLAFWSKHVDGDQCLVLPLEHPCASLCCGHGTCIDGIGSFSCDCRSGWEGRFCQREVSFLNCSLDNGGCTHYCLEEVGWRRCSCAPGYKLGDDLLQCHPAVKFPCGRPWKRMEKKRSHL
chain 2: LIDGKMTRRGDSPWQVVLLDSKKKLACGAVLIHPSWVLTAAHCMDESKKLLVRLGEYDLRRWEKWELDLDIKEVFVHPNYSKSTTDNDIALLHLAQPATLSQTIVPICLPDSGLAERELNQAGQETLVTGWGYHSSREKEAKRNRTFVLNFIKIPVVPHNECSEVMSNMVSENMLCAGILGDRQDACEGDSGGPMVASFHGTWFLVGLVSWGEGCGLLHNYGVYTKVSRYLDWIHGHIRDKEAPQKSWAP
Q: B1 was tested. Which “remaining FVa activity over time (prothrombinase assay); plasma FVa, 0.4 nM APC, phospholipid vesicles” value [1] did it give?
A: The addition of wt APC resulted in a slow decrease in FVa activity corresponding to cleavage at Arg306

Q: What about the “prothrombin time (PT) assay, clotting time in human plasma” value [2] of the same protein?
A: Both wild-type human APC and human APC-SP increased clotting times essentially in this PT assay

Q: What about the “remaining FVa activity over time (prothrombinase assay, S2238); 0.76 nM plasma FVa, 0.39 nM APC, phospholipid vesicles” value [2] of the same protein?
A: initial rapid loss of FVa activity that is observed during the first 5 minutes of incubation; slow decrease in FVa activity observed between 5 minutes and 25 minutes of incubation

Q: What about the “prothrombin time (PT) assay, clotting time in bovine plasma” value [3] of the same protein?
A: wild-type human APC and human APC-SP efficiently prolong clotting time in bovine plasma

Q: And the “factor VIIIa inactivation assay (FXa formation, S-2222) with human protein S and factor V” value [4]?
A: the activity of factor VIIIa was inactivated by all APC's from section (2)(i) above but high concentrations were needed

Q: What about the “factor VIIIa inactivation assay with bovine protein S and bovine factor V” value [4] of the same protein?
A: able to inhibit factor VIIIa activity in the presence of bovine protein S and bovine factor V

B2: wild-type bovine activated protein C (recombinant, thrombin-activated) (protein)
chain 1: ANSFLEELRPGNVERECSEEVCEFEEAREIFQNTEDTMAFWSKYSDGDQCEDRPSGSPCDLPCCGRGKCIDGLGGFRCDCAEGWEGRFCLHEVRFSNCSAENGGCAHYCMEEEGRRHCSCAPGYRLEDDHQLCVSKVTFPCGRLGKRMEKKRKTL
chain 2: IVDGQEAGWGESPWQAVLLDSKKKLVCGAVLIHVSWVLTVAHCLDSRKKLIVRLGEYDMRRWESWEVDLDIKEVIIHPNYTKSTSDNDIALLRLAKPATLSQTIVPICLPDSGLSERKLTQVGQETVVTGWGYRDETKRNRTFVLSFIKVPVVPYNACVHAMENKISENMLCAGILGDPRDACEGDSGGPMVTFFRGTWFLVGLVSWGEGCGRLYNYGVYTKVSRYLDWIYGHIKAQEAPLESQVP
Q: B2 was tested. Which “prothrombin time (PT) assay, clotting time in human plasma” value [2] did it give?
A: Neither wild-type bovine APC nor bovine APC-SP had any effect in human plasma

Q: What about the “prothrombin time (PT) assay, clotting time in bovine plasma” value [3] of the same protein?
A: wild-type bovine APC and its mutant expressed only weak anticoagulant acitivity in bovine plasma

Q: And the “factor VIIIa inactivation assay (FXa formation, S-2222) with human protein S and factor V” value [4]?
A: the activity of factor VIIIa was inactivated by all APC's from section (2)(i) above but high concentrations were needed

Q: What about the “factor VIIIa inactivation assay with bovine protein S and bovine factor V” value [4] of the same protein?
A: able to inhibit factor VIIIa activity in the presence of bovine protein S and bovine factor V; worked more efficiently than wild-type human APC and human APC-SP

Q: And the “factor VIIIa inactivation assay with human protein S and factor V, low APC concentrations” value [4]?
A: At low concentrations, neither bovine wild-type APC nor bovine APC-SP could inactivate factor VIIIa
